Results taken from paper PMC4072508, “Genome-Wide Prediction and Validation of Peptides That Bind Human Prosurvival Bcl-2 Proteins” (PLoS Computational Biology, 2014).

T1: Bfl-1, Q16548
T1 chain: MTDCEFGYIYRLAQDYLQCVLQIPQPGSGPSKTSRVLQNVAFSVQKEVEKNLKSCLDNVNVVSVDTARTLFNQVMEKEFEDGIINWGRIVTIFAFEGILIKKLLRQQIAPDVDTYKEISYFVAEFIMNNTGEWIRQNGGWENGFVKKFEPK

T2: Mcl-1, Q07820
T2 chain: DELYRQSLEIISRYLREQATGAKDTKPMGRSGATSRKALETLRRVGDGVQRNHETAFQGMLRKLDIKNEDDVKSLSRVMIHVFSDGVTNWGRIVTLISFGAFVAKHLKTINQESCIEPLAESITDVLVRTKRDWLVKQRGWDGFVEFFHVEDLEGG


Key:
Test in all cases: peptide SPOT array, c-Myc-tagged receptor at 1 uM or 100 nM, anti-c-Myc-Cy3
Bcl-xL, Q07817 = biological target: Bcl-xL, Q07817
Bcl-xL, Q07817, sequence (Q07817 1-209): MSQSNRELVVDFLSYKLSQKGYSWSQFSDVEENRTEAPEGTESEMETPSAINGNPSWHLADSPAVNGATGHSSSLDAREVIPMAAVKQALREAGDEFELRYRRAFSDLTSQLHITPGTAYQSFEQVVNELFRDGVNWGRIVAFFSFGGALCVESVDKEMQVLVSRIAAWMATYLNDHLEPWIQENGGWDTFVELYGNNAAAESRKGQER

Bfl-1, Q16548 = biological target: T1, Bfl-1, Q16548
Mcl-1, Q07820 = biological target: T2, Mcl-1, Q07820

| Binder | SPOT signal as a fraction of Bim BH3's signal on the same receptor and array (Bcl-xL, Q07817) | SPOT signal as a fraction of Bim BH3's signal on the same receptor and array (Bfl-1, Q16548) | SPOT signal as a fraction of Bim BH3's signal on the same receptor and array (Mcl-1, Q07820) |
| --- | --- | --- | --- |
| MSILTIASAVDEFVGDGIYNNTMGHV [TAP1] | 0.06 | 0.03 | 0.04 |
| VLELHPGAQRLHIGLDEVYYLGEGEA [HEXDC] | 0.06 | 0.04 | 0.05 |
| ADVHGIWSRLDCDFGDEFEVLDTTGE [UBA6] | 0.06 | 0.03 | 0.04 |
| MRPEIWIAQELRRILDEFNAYYARRV [BCL2L11] | 0.1 | 0.05 | 0.05 |
| NGGLLEFHKSLQEIGDKNDHWFDIDP [DZIP3] | 0.11 | 0.04 | 0.04 |
| TVATRRLSGFLRTLLDRLEGTKELLS [MINA] | 0.31 | 0.21 | 0.29 |
| KGTAVAICRRLGIFGDTEDVAGKAYT [ATP2A3] | 0.23 | 0.25 | 0.19 |
| AELRLFLAQRLRWLLDSCPASRATCV [NBEAL2] | 0.52 | 0.53 | 0.72 |
| PKKKMTLSEIYQWICDNFPYYREAGS [FOXJ3] | 0.33 | 0.12 | 0.22 |
| QAGPVSSGLADRKLGDRVQLLNLLVT [CCDC57] | 0.1 | 0.07 | 0.07 |
| ACGDSVLARMLRELLDSLRRPQLRLW [SLC19A1] | 0.71 | 0.33 | 0.28 |
| AEVMRQRGINMRYLGKVLELVLRSPA [KIAA0664] | 0.94 | 0.52 | 0.69 |
| YFKLFRASGDDRTNGDNYLYEIQLSS [IGF2R] | 0.25 | 0.29 | 0.28 |
| RKDAELLCWDLRQSLYPLWSLGREVT | 0.09 | 0.05 | 0.07 |
| QASREAGAAALRNVLQRLFENYQTQS [CCDC68] | 0.28 | 0.18 | 0.2 |
| FGEYSGISENIILVLDDFWIPETSFI [ROS1] | 0.07 | 0.04 | 0.06 |
| LCQLSCVSKLMRDVLGSLLQSRGMVI [FBXO30] | 0.38 | 0.38 | 0.26 |
| AGYELLIQKFDSLYGDQIDMHRKFVV [ISOC1] | 0.08 | 0.05 | 0.07 |
| RLRQLGVAKKDGVLSDNFKGKRIVLV [PPAT] | 1.16 | 0.44 | 0.68 |
| DSLLWKLAGLDRESGDVVLSGCSTLS [STK11IP] | 0.06 | 0.04 | 0.04 |
| LALLAQPSHLMRQVARSVFGHICSHL [MYBBP1A] | 0.96 | 0.57 | 0.57 |
| GTAVAYRGAHLRGRGRAVYNTFRAAP [XXXX] | 2.82 | 1.26 | 1.6 |
| HHSSQEMSSEYREYADSFGKCPGGRN [PCYT2] | 0.05 | 0.03 | 0.04 |
| RKDAELLCWDLRQSGYPLWSLGREVT | 0.07 | 0.05 | 0.06 |
| QRKHEGFERDDAALGDKVNSLGETAE [SPTAN1] | 0.08 | 0.08 | 0.09 |
